{"source": "the DeepSol protein solubility set", "data": [{"experiment": "soluble on expression in E. coli; label from the status in PepcDB or PDB records", "values": [{"sequence": "GLVPRGSHMMEILRGSPALSAFRINKLLARFQAANLQVHNIYAEYVHFADLNAPLNDSEQAQLTRLLQYGPALSSHTPAGKLLLVTPRPGTISPWSSKATDIAHNCGLQQVDRLERGVAYYIEASTLTAEQWRQVAAELHDRMMETVFSSLTDAEKLFIHHQPAPVSSVDLLGEGRQALIDANLRLGLALAEDEIDYLQEAFTKLGRNPNDIELYMFAQANSEHCRHKIFNADWIIDGKPQPKSLFKMIKNTFETTPDYVLSAYKDNAAVMEGSAVGRYFADHNTGRYDFHQEPAHILMKVETHNHPTAISPWPGAATGSGGEIRDEGATGRGAKPKAGLVGFSVSNLRIPGFEQPWEEDFGKPERIVTALDIMTEGPLGGAAFNNEFGRPALTGYFRTYEEKVNSHNGEELRGYHKPIMLAGGIGNIRADHVQKGEIVVGAKLIVLGGPAMNIGLGGGAASSMASGQSDADLDFASVQRDNPEMERRCQEVIDRCWQLGDANPILFIHDVGAGGLSNAMPELVSDGGRGGKFELRDILSDEPGMSPLEIWCNESQERYVLAVAADQLPLFDELCKRERAPYAVIGDATEEQHLSLHDNHFDNQPIDLPLDVLLGKTPKMTRDVQTLKAKGDALNRADITIADAVKRVLHLPTVAEKTFLVTIGDRTVTGMVARDQMVGPWQVPVADCAVTTASLDSYYGEAMSIGERAPVALLDFAASARLAVGEALTNIAATQIGDIKRIKLSANWMAAAGHPGEDAGLYDAVKAVGEELCPQLGLTIPVGKDSMSMKTRWQEGNEQREMTSPLSLVISAFARVEDVRHTLTPQLSTEDNALLLIDLGKGHNALGATALAQVYRQLGDKPADVRDVAQLKGFYDAMQALVAARKLLAWHDRSDGGLLVTLAEMAFAGHCGVQVDIAALGDDHLAALFNEELGGVIQVRAEDRDAVEALLAQYGLADCVHYLGQALAGDRFVITANDQTVFSESRTTLRVWWAETTWQMQRLRDNPQCADQEHEAKANDTDPGLNVKLSFDINEDIAAPYIATGARPKVAVLREQGVNSHVEMAAAFHRAGFDAIDVHMSDLLGGRIGLGNFHALVACGGFSYGDVLGAGEGWAKSILFNHRVRDEFETFFHRPQTLALGVCNGCQMMSNLRELIPGSELWPRFVRNHSDRFEARFSLVEVTQSPSLLLQGMVGSQMPIAVSHGEGRVEVRDDAHLAALESKGLVALRYVDNFGKVTETYPANPNGSPNGITAVTTENGRVTIMMPHPERVFRTVANSWHPENWGEDSPWMRIFRNARKQLG", "soluble on expression in E. coli": "soluble"}, {"sequence": "SDRFVWTSGLLEINETLVIQQRGVRIYDGEEKIKFDAGTLLLSTHRLIWRDQKNHECCMAILLSQIVFIEEQAAGIGKSAKIVVHLHPAPPNKEPGPFQSSKNSYIKLSFKEHGQIEFYRRLSEEMTQRRWENMPVSQSLQTNRGPQPGRIRAVGIVGIERKLEEKRKETDKNISEAFEDLSKLMIKAKEMVELSKSIANKIKDKQGDITEDETIRFKSYLLSMGIANPVTRETYGSGTQYHMQLAKQLAGILQVPLEERGGIMSLTEVYCLVNRARGMELLSPEDLVNACKMLEALKLPLRLRVFDSGVMVIELQSHKEEEMVASALETVSEKGSLTSEEFAKLVGMSVLLAKERLLLAEKMGHLCRDDSVEGLRFYPNLFMTQS", "soluble on expression in E. coli": "soluble"}, {"sequence": "MIRDYKSKLEFLAFYDELTGLPNKNSLIRWLNLKVSQMDCIDTYLIFLEVRDLEKLNVTYGYDLVDELIIHISKRIKDIAGEGNKAFKIGFDRFAIICKSENISDFIERMLSQLLLPYNVNGNLIRVNFNIGAAQIENSNEAAANLMRRCDLALIKAKEEGLNEYVIFKPSIELEHHHHHH", "soluble on expression in E. coli": "not soluble"}, {"sequence": "MSELEKTFGIKVSPGAIYPILSSLRKSGLIEVAREGKREKKLYRITEKGEEYLKKHEDEVEEALEIANKLKEFSELGGREVAQVLREVIENIDKLSEEQKTALAREFSEFVKRIKIILLGGE", "soluble on expression in E. coli": "soluble"}, {"sequence": "MVKGVETKTIVGLEVGTSKVVVVVGEVFPDGVVNVLGVGSCPSKGIDRGSITDLDAVVGSIQRAIEAAESMADCQIMSVTLAITGEHIQSLNESGFVPIAESEVTQEEIDSALHTASSIKLPEGL", "soluble on expression in E. coli": "not soluble"}, {"sequence": "MGRSHHHHHHGSLVPRGSEQGSNVNHLIKVTDQSITEGYDDSDGIIKAHDAENLIYDVTFEVDDKVKSGDTMTVNIDKNTVPSDLTDSFAIPKIKDNSGEIIATGTYDNTNKQITYTFTDYVDKYENIKAHLKLTSYIDKSKVPNNNTKLDVEYKTALSSVNKTITVEYQKPNENRTANLQSMFTNIDTKNHTVEQTIYINPLRYSAKETNVNISGNGDEGSTIIDDSTIIKVYKVGDNQNLPDSNRIYDYSEYEDVTNDDYAQLGNNNDVNINFGNIDSPYIIKVISKYDPNKDDYTTIQQTVTMQTTINEYTGEFRTASYDNTIAFSTSSGQGQGDLPPEK", "soluble on expression in E. coli": "soluble"}, {"sequence": "MGSDKIHHHHHHENLYFQGMSKVFVNISLSLDGFMAPEGMDMAHFSDPTYKNWGAKWGALMAWALSQQYLREKLKLGTGGETGPVNDMVRHTFERTGAHIMGKRMFEGGERGWPEEAPFHTPVYVLTHERRNPWVRPGGTTFYFVNDGPEQALALAREAAGERDIRISGGANVIQQYLNLGLVDELEIALIPVIFGGGRRLFENLHEPLPQFRIDRVLASPTATHLRYVRL", "soluble on expression in E. coli": "soluble"}, {"sequence": "MQVIKTNETFDSLDKSKLERMLDIKEAHREGHLTLEEAKERMKKEVGSISPEEFAAAEQLFKERDQDECQNEDVRTMLQLFEGLINPIRPDLPFGHPIDAYLRENDKAKELLDQADALLERTFIPNPWIELMETLMGYKLHFARKQNQLYSTLEQKGFDRPSTTMWTYDDHIRDEMNKAMSLLREKDYDSFPAAYKEMAIVLRDLMEKEELILYPTSLKLISDKEFEEMKHGDREIGFFLIDMPELDAPAKQSKEAHGQSFMAELGALLAKHGMGTGGQDDKAILDVAEGKLTLEQINLLFRHLPVDISFVDENELVCFYTDTKHRVFPRSKGVIGREVRNCHPPKSVHIVEEIIDKFRRGEQDRAEFWINKPGVFIYIVYVAIRDADGRFRGVMEMMQDCTRIRSLEGSRTLLTWDEEQSPAQGSKESESDTAGEDGIRPDTKLKSLLQRYPQLMDDLPTISSKFTLLRSPMAKVILPVATIKMMSERADIPSDMLIGKLESLIASYNKPDRSEEK", "soluble on expression in E. coli": "not soluble"}, {"sequence": "MKKGTPLPHSDELDAGNVLAVENLNIAFMQDQQKIAAVRNLSFSLQRGETLAIVGESGSGKSVTALALMRLLEQAGGLVQCDKMLLQRRSREVIELSEQNAAQMRHVRGADMAMIFQEPMTSLNPVFTVGEQIAESIRLHQNASREEAMVEAKRMLDQVRIPEAQTILSRYPHQLSGGMRQRVMIAMALSCRPAVLIADEPTTALDVTIQAQILQLIKVLQKEMSMGVIFITHDMGVVAEIADRVLVMYQGEAVETGTVEQIFHAPQHPYTRALLAAVPQLGAMKGLDYPRRFPLISLEHPAKQAPPIEQKTVVDGEPVLRVRNLVTRFPLRSGLLNRVTREVHAVEKVSFDLWPGETLSLVGESGSGKSTTGRALLRLVESQGGEIIFNGQRIDTLSPGKLQALRRDIQFIFQDPYASLDPRQTIGDSIIEPLRVHGLLPGKDAAARVAWLLERVGLLPEHAWRYPHEFSGGQRQRICIARALALNPKVIIADEAVSALDVSIRGQIINLLLDLQRDFGIAYLFISHDMAVVERISHRVAVMYLGQIVEIGPRRAVFENPQHPYTRKLLAAVPVAEPSRQRPQRVLLSDDLPSNIHLRGEEVAAVSLQCVGPGHYVAQPQSEYAFMRR", "soluble on expression in E. coli": "not soluble"}, {"sequence": "MSLKIVYITENAEKLAKDVKSVFDYYFYDNEVFNIKDFEITGNETGFVFIMASGIVLRKYIPEIQNDKLKDPFVILMDESKKHVVPLLSNHIGGGNYFSDLIGNFLNLDVVKTTATDVNGKIGIDELSKIYFLENPLKKDILSVNKKVLSEKPDLIIPKAWKTSKKLLNSYNVSFHDESHVLVDDIVLKPKTVSLGLGSRRNIEKSKVYWAVKKALYLRDIPTWRIDTFSTVSVKKDEYGILKTAERFDKDLFIFEIDELNEIYSKYPLIRSEFVFKTIGTYGVSEPCAILGISKITGETDFEMKKLVLNKMKKDGVSVSIAVEGHHHHHH", "soluble on expression in E. coli": "not soluble"}, {"sequence": "AMADIGSMGDPLTWSKALKKLEKVTVQGSQKLTTGNCNWALSLVDLFHDTNFVKEKDWQLRDVIPLLEDVTQTLSGQEREAFERTWWAISAVKMGLQINNVVDGKASFQLLRAKYEKKTANKKQSEPSEEY", "soluble on expression in E. coli": "soluble"}, {"sequence": "MITGETEPACVEDASQLAEQRNGAPVMEAGCAAVPVEANATKRGYWRQRTLHSWFIGRKPQRTCIAVDIDEVLAFFVPELCAFHNKRYGTRLQATDFHSYRFAEVWGGTDTDAIRKVHEFFRTPAFQELQPIPGAKQVLQSRLARFRFVVVTSRQLVIEQETRAWLDKHFSGIFEAIYLGNQWALHPNGEHGTGVGSAAQEPQRLFANRRRKSQVCKACGAAVLIDDLPHNLLDCSENGVFGVLFDFQGQYGWSKSPAFESKDIAVVHSWEAVGELLDRL", "soluble on expression in E. coli": "not soluble"}, {"sequence": "MSLGIENDRKLVVNCLPLTEAERAQFTRAAKGMPQEFVGDPAQRGSMNWTAEIPDELKAYATAVIGNITPETCAQCPRLEWLQTWSAGVDKYQHPGILQPGSMLTNATGAYGQSVSEHMFAMMWAIMKNLHIYAVGNPNAAWQDAGRVISPDGKTALIIGTGDIGSHFARLCKSVGMSTIGIRRNPTVEAPGIDHMVGFESLDDVLQYADVIAMCVPSTPSTHHLLNAERIAKLKTDATVINAGRGDAIDTQALADALANGMIRGAGLDVTEPEPLPAASPLWSEPKCLITPHVAGGNHLESTERRIIAIALGNVRCYANGQSLDNRMPLKGEGHHHHHH", "soluble on expression in E. coli": "soluble"}, {"sequence": "MSLQTFVIVGHVIPNNDMSPTLNKGDRVIVNKIKVTFNQLNNGDIITYRRGNEIYTSRIIAKPGQSMAFRQGQLYRDDRPVDASYAKNRKIKDFSLRNFKELDGDIIPPNNFVVLNDHDNNQHDSRQFGLIDKKDIIGNISLRYYPFSKWTIQFKSEGHHHHHH", "soluble on expression in E. coli": "soluble"}, {"sequence": "MLRSTSDRFRWSSLSLAIACTLPLATQAADTTTTQTSSKKHSTDTMVVTATGNERSSFEAPMMVTVIEGNAPTSQTAATAADMLRQVPGLTVTGSGRTNGQDVVMRGYGKQGVLTLVDGVRQGTDTGHLNSTFLDPALVKRIEIVRGPAALLYGSGALGGVIAYETVDAADMLQPGQNSGYRVYSSAATGDHSFGLGASAFGRTDDLDGILSFGTRDIGNIRQSNGFNAPNDETISNVLAKGTWQIDSIQSLSANLRYYNNSAIEPKNPQTSAPSSTNVMTNRSTIQRDAQLRYNIKPLDQEWLNATAQVYYSEVEINARPQGSAEEGREQTTEGVKLENRTRLFIESPASHLLTYGTETYKQEQTPGGATESFPQAKIRFSSGWLQDEITLRDLPVSILAGTRYDNYSGSSDGYADVDADKWSSRGAISITPTDWLMLFGSYAQAFRAPTMGEMYNDSKHFAIPIRPGLTLTNYWVPNPNLKPETNETQEYGFGLRFSDLLMAEDDLQFKVSYFDTKAKDYISTRVDMQAMTTTSVNIDQAKIWGWDASMSYKTALFNWDLAYNRTRGKNQNTDEWLDTINPDTVTSIVDVPVANSGFSVGWIGTFANRSSRVSSSTPQAGYGVNDFYVSYKGQEAFKGMTTTMLLGNVFEKEYYTPQGIPQDGRNVKFFVSYQW", "soluble on expression in E. coli": "not soluble"}, {"sequence": "MGSDKIHHHHHHMKFSLGPILYFWPKQQVFDFYQQAAESDVEHVYLGETVCSKRRELKLDDYLAIAHMLREAGKKVTLSTMTLLEAPAELRELGKYCDNGEFDVEANDVSAIGVLQEQGLNFTAGPGINIYNHQSLRRLIDMGMTRWVVPFELSRDWLQDVLQHNLIDTVRDCFDVEVFSFGHIPLAWSGRCFTARSENRPKDQCELCCIKYPEGREVKSQEGQQVFVLNGIQTQSGTRYNLINQLPGMNGLVDIVRISPQPEGTFDWLQRFRSNINGEHPVTLTSKENNGYWLQLAGLATG", "soluble on expression in E. coli": "not soluble"}]}]}
